Test results published in patent US8975044B2, “Polynucleotides encoding for frizzled-binding agents and uses thereof” (OncoMed Pharmaceuticals, Inc., priority 2008, dated 2015).

Target: T1, FZD8 binding to Wnt3A (Homo sapiens, UniProt Q9H461)
T1 construct: amino acids 1-157 of FZD8 linked in-frame to human IgG1 Fc
T1 sequence (Q9H461 28-157): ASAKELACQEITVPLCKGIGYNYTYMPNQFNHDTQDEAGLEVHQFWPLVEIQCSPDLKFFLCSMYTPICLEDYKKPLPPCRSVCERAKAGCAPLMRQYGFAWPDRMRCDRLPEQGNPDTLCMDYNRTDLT
Assay: Blocking of FZD8-Fc binding to Wnt3A (protein A depletion, STF293 reporter readout)
Assay type: biochemical
Settings: in the absence of 18R8
Experimental: To assess the ability of 18R8 to block the binding of FZD to Wnt, 2 μl of 1.32 μg/μl soluble FZD8-Fc containing the Fri domain (amino acids 1-157 of FZD8 linked in-frame to human IgG1 Fc) was added to culture medium to bind Wnt3A (added as 20 μl of Wnt3A conditioned medium) either alone or in the presence of the 18R8 IgG antibody (added as 4 μl of 3.71 μg/μl). The mixtures were incubated either alone or in the presence of Protein A sepharose beads (GE Healthcare products; 20 μl of 50% solution in PBS) for two hrs at 4° C. After the incubation, the protein A beads (and any proteins complexed to the protein A beads) in each sample were removed by spinning and the supernatant was assayed for ability to induce 8×TCF luciferase activity. The supernatant was added to STF293 cells, which stably express 8×TCF (eight copies of the TCF-binding domain upstream of a firefly luciferase reporter gene) to measure canonical Wnt signaling levels and which were cultured in DMEM supplemented with antibiotics and 10% FCS. Eighteen hours following treatment of the STF293 cells, luciferase levels were measured using a dual luciferase assay kit (Promega; Madison, Wis.).

B1: Fzd8-Fc: soluble FZD8-Fc containing the Fri domain (amino acids 1-157 of FZD8 linked in-frame to human IgG1 Fc) (protein)
chain: T1 sequence (Q9H461 28-157)
modifications: left off: a dimerising Fc or GST
  effect on Wnt3A-stimulated signaling: inhibit the ability of Wnt3A to stimulate signaling
